Results published in the supplement of paper PMC10065799, “High-throughput profiling of sequence recognition by tyrosine kinases and SH2 domains using bacterial peptide display” (eLife, 2023).
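Note: 11-residue human phosphosite peptides and single-mutation variants displayed on the E. coli surface, counted by deep sequencing, each peptide's frequency after selection divided by its frequency in the unselected input library; frequency after pTyr selection over input frequency; kinase dosed for 20-30% of maximal phosphorylation in three min.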

Each sequence was assayed against FGFR3 (UniProt P22607) (assay: phosphorylation enrichment, bacterial display (enrichment ratio); higher = better substrate or ligand; peptides without Tyr show the background).
Sequence of FGFR3 (P22607 whole entry, looked up): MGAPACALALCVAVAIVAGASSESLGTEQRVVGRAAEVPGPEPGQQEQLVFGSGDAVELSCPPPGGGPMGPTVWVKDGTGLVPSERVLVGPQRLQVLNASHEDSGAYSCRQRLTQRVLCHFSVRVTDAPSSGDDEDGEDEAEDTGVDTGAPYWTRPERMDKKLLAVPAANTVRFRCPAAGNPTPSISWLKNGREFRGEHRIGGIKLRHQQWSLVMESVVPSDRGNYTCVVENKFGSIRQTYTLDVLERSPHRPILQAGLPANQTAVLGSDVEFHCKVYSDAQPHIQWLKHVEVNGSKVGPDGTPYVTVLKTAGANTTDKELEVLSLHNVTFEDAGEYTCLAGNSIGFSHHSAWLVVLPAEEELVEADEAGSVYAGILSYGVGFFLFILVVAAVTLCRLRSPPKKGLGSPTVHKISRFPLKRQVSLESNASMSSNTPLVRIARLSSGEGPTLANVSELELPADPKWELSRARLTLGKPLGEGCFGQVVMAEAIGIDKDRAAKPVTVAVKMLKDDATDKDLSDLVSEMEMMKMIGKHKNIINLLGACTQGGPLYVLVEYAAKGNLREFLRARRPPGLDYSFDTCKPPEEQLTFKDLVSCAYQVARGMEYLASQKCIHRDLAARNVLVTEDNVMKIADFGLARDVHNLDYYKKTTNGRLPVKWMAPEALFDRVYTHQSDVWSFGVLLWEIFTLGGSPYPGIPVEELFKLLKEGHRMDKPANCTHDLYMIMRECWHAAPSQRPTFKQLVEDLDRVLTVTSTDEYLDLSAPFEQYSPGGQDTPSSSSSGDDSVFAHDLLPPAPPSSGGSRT
With HFVDEYDQTIE [KRAS_Y32_P34Q] the phosphorylation enrichment was 0.852.
Sequence TGGLEYIVPLM [CLCN4_Y548] has a phosphorylation enrichment of 2.29.
Sequence ECKLLYSRKEG [PTPN11_Y263] has a phosphorylation enrichment of 0.554.
Sequence GLQDEYDFKCK [STAT1_Y170_D165G] has a phosphorylation enrichment of 0.555.
In the case of EGDGVYTLNNE [HP_Y125], the phosphorylation enrichment is reported as 0.822.
RHPLEYLRQYP [NARS2_Y138] showed a phosphorylation enrichment of 0.586.
With INNKMYDPKMN [ENPP1_Y280_D276N] the phosphorylation enrichment was 0.491.
DGMADCSDPSF [CDC5L_Y459_Y459C_YF] showed a phosphorylation enrichment of 0.701.
For FTRNYYVRAVL [CYBA_Y88], the phosphorylation enrichment was 0.685.
Sequence IHRWVYPLTPE [EIF2B5_Y319_R315H] has a phosphorylation enrichment of 0.698.
QLAPQYTYAQG [FLNA_Y1761] showed a phosphorylation enrichment of 0.704.
Work on NLAAQYTTVGR [SGSH_Y240_D235N] yielded a phosphorylation enrichment of 0.375.
In the case of INMKKYCKKDY [NTN1_Y490], the phosphorylation enrichment is reported as 0.592.
In the case of QLAPQYTFTQG [FLNA_Y1761_A1764T_YF], the phosphorylation enrichment is reported as 0.982.
In the case of FADIAYNFRHA [PAH_Y166_G171A_YF], the phosphorylation enrichment is reported as 0.462.
LTTEVYFPSIK [C5orf64_Y60_A57T] gave a phosphorylation enrichment of 0.661.
Work on LANNEYFFQVC yielded a phosphorylation enrichment of 9.36.
ADGLEYSRTGL [MMUT_Y287] gave a phosphorylation enrichment of 0.559.
With RHPREYQDLLN [DES_Y388_L385P] the phosphorylation enrichment was 0.572.
For CVVVPYEPPEV [TP53_Y220_S215C], the phosphorylation enrichment was 1.03.
In the case of NKFVAYIESQG [KDM4B_Y34_YF], the phosphorylation enrichment is reported as 0.663.
KRTFEYEAEKN [DENND2B_Y396_D399E] showed a phosphorylation enrichment of 0.527.
For SELVRYDARVH [MET_Y971], the phosphorylation enrichment was 0.627.
In the case of FVPSFYHAFSG [ACTN4_Y265_S262P_YF], the phosphorylation enrichment is reported as 0.824.
GKGGSYSQAAS [HLA-B_Y344_C349S] showed a phosphorylation enrichment of 0.52.
QKMADYSNKLH [PDPR_Y104_Y109H] was tested, and the phosphorylation enrichment was 0.708.
KDHPDYKYQAR [SOX10_Y171_P175A] gave a phosphorylation enrichment of 0.563.
IQKWEYVPLGT [FAH_Y244_P249T] was tested, and the phosphorylation enrichment was 0.723.
For DPAFGYEDFTR [SESN2_Y323_T320A], the phosphorylation enrichment was 0.775.
CCNHPYRINGA [CHD7_Y1256_L1257R] showed a phosphorylation enrichment of 0.564.
EILLSYLRTGF [TGM1_Y365_YF] showed a phosphorylation enrichment of 0.619.
Work on DLKFHYDNTAG [KDR_Y1214_P1210L] yielded a phosphorylation enrichment of 0.661.
In the case of AVVEPYNSILT [TUBA1A_Y185], the phosphorylation enrichment is reported as 0.496.

Each sequence was assayed on Fer (mouse) in the same assay as above.
HFVDEYDQTIE [KRAS_Y32_P34Q] gave a phosphorylation enrichment of 0.667.
In the case of TGGLEYIVPLM [CLCN4_Y548], the phosphorylation enrichment is reported as 0.379.
ECKLLYSRKEG [PTPN11_Y263] showed a phosphorylation enrichment of 0.465.
For GLQDEYDFKCK [STAT1_Y170_D165G], the phosphorylation enrichment was 0.467.
With EGDGVYTLNNE [HP_Y125] the phosphorylation enrichment was 0.658.
With RHPLEYLRQYP [NARS2_Y138] the phosphorylation enrichment was 0.536.
Work on INNKMYDPKMN [ENPP1_Y280_D276N] yielded a phosphorylation enrichment of 0.482.
For DGMADCSDPSF [CDC5L_Y459_Y459C_YF], the phosphorylation enrichment was 0.627.
FTRNYYVRAVL [CYBA_Y88] was tested, and the phosphorylation enrichment was 0.526.
In the case of IHRWVYPLTPE [EIF2B5_Y319_R315H], the phosphorylation enrichment is reported as 0.405.
For QLAPQYTYAQG [FLNA_Y1761], the phosphorylation enrichment was 0.448.
NLAAQYTTVGR [SGSH_Y240_D235N] gave a phosphorylation enrichment of 0.36.
Sequence INMKKYCKKDY [NTN1_Y490] has a phosphorylation enrichment of 0.434.
Sequence QLAPQYTFTQG [FLNA_Y1761_A1764T_YF] has a phosphorylation enrichment of 0.58.
FADIAYNFRHA [PAH_Y166_G171A_YF] gave a phosphorylation enrichment of 0.348.
LTTEVYFPSIK [C5orf64_Y60_A57T] gave a phosphorylation enrichment of 0.482.
In the case of LANNEYFFQVC, the phosphorylation enrichment is reported as 0.939.
Sequence ADGLEYSRTGL [MMUT_Y287] has a phosphorylation enrichment of 0.514.
With RHPREYQDLLN [DES_Y388_L385P] the phosphorylation enrichment was 0.327.
In the case of CVVVPYEPPEV [TP53_Y220_S215C], the phosphorylation enrichment is reported as 0.854.
NKFVAYIESQG [KDM4B_Y34_YF] was tested, and the phosphorylation enrichment was 0.481.
In the case of KRTFEYEAEKN [DENND2B_Y396_D399E], the phosphorylation enrichment is reported as 0.436.
SELVRYDARVH [MET_Y971] gave a phosphorylation enrichment of 0.442.
Work on FVPSFYHAFSG [ACTN4_Y265_S262P_YF] yielded a phosphorylation enrichment of 0.444.
Sequence GKGGSYSQAAS [HLA-B_Y344_C349S] has a phosphorylation enrichment of 0.441.
For QKMADYSNKLH [PDPR_Y104_Y109H], the phosphorylation enrichment was 0.571.
Work on KDHPDYKYQAR [SOX10_Y171_P175A] yielded a phosphorylation enrichment of 0.448.
In the case of IQKWEYVPLGT [FAH_Y244_P249T], the phosphorylation enrichment is reported as 0.416.
Work on DPAFGYEDFTR [SESN2_Y323_T320A] yielded a phosphorylation enrichment of 0.457.
CCNHPYRINGA [CHD7_Y1256_L1257R] was tested, and the phosphorylation enrichment was 0.454.
EILLSYLRTGF [TGM1_Y365_YF] showed a phosphorylation enrichment of 0.411.
With DLKFHYDNTAG [KDR_Y1214_P1210L] the phosphorylation enrichment was 0.466.
With AVVEPYNSILT [TUBA1A_Y185] the phosphorylation enrichment was 0.377.

These sequences were tested against Fes (UniProt P07332) in the same assay as above.
Sequence of Fes (P07332 whole entry, looked up): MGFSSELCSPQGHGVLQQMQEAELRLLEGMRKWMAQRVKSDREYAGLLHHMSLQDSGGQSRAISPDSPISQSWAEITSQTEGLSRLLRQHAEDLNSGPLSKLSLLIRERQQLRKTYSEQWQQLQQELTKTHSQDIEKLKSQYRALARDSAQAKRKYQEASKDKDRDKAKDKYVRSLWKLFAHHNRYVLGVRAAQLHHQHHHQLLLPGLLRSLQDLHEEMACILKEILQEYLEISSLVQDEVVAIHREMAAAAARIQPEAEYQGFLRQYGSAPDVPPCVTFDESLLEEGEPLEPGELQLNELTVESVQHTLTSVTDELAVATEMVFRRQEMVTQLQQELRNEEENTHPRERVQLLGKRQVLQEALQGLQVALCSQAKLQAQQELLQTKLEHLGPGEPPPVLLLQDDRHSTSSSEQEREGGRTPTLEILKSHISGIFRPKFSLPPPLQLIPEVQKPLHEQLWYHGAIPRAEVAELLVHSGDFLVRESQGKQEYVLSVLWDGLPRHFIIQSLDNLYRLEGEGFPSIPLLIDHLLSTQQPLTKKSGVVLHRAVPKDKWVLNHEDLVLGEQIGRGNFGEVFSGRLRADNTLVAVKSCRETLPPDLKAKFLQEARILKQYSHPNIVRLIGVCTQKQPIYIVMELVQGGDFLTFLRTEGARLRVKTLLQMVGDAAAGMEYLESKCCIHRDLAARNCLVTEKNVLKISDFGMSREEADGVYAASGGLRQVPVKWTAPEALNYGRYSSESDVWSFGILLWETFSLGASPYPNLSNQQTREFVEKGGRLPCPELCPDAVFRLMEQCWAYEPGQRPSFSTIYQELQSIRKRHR
Sequence HFVDEYDQTIE [KRAS_Y32_P34Q] has a phosphorylation enrichment of 2.04.
TGGLEYIVPLM [CLCN4_Y548] gave a phosphorylation enrichment of 0.965.
ECKLLYSRKEG [PTPN11_Y263] was tested, and the phosphorylation enrichment was 0.754.
GLQDEYDFKCK [STAT1_Y170_D165G] was tested, and the phosphorylation enrichment was 1.12.
EGDGVYTLNNE [HP_Y125] gave a phosphorylation enrichment of 1.16.
For RHPLEYLRQYP [NARS2_Y138], the phosphorylation enrichment was 1.13.
For INNKMYDPKMN [ENPP1_Y280_D276N], the phosphorylation enrichment was 0.609.
DGMADCSDPSF [CDC5L_Y459_Y459C_YF] showed a phosphorylation enrichment of 1.29.
FTRNYYVRAVL [CYBA_Y88] gave a phosphorylation enrichment of 1.11.
IHRWVYPLTPE [EIF2B5_Y319_R315H] gave a phosphorylation enrichment of 0.918.
Sequence QLAPQYTYAQG [FLNA_Y1761] has a phosphorylation enrichment of 1.01.
Sequence NLAAQYTTVGR [SGSH_Y240_D235N] has a phosphorylation enrichment of 0.489.
INMKKYCKKDY [NTN1_Y490] was tested, and the phosphorylation enrichment was 0.912.
QLAPQYTFTQG [FLNA_Y1761_A1764T_YF] was tested, and the phosphorylation enrichment was 1.09.
Work on FADIAYNFRHA [PAH_Y166_G171A_YF] yielded a phosphorylation enrichment of 0.591.
Sequence LTTEVYFPSIK [C5orf64_Y60_A57T] has a phosphorylation enrichment of 0.895.
LANNEYFFQVC showed a phosphorylation enrichment of 2.72.
ADGLEYSRTGL [MMUT_Y287] gave a phosphorylation enrichment of 0.978.
Work on RHPREYQDLLN [DES_Y388_L385P] yielded a phosphorylation enrichment of 0.545.
CVVVPYEPPEV [TP53_Y220_S215C] showed a phosphorylation enrichment of 1.54.
NKFVAYIESQG [KDM4B_Y34_YF] was tested, and the phosphorylation enrichment was 1.12.
Work on KRTFEYEAEKN [DENND2B_Y396_D399E] yielded a phosphorylation enrichment of 0.769.
Work on SELVRYDARVH [MET_Y971] yielded a phosphorylation enrichment of 0.739.
FVPSFYHAFSG [ACTN4_Y265_S262P_YF] showed a phosphorylation enrichment of 0.83.
In the case of GKGGSYSQAAS [HLA-B_Y344_C349S], the phosphorylation enrichment is reported as 0.819.
With QKMADYSNKLH [PDPR_Y104_Y109H] the phosphorylation enrichment was 0.835.
With KDHPDYKYQAR [SOX10_Y171_P175A] the phosphorylation enrichment was 0.696.
With IQKWEYVPLGT [FAH_Y244_P249T] the phosphorylation enrichment was 0.866.
DPAFGYEDFTR [SESN2_Y323_T320A] was tested, and the phosphorylation enrichment was 1.21.
CCNHPYRINGA [CHD7_Y1256_L1257R] showed a phosphorylation enrichment of 0.621.
Work on EILLSYLRTGF [TGM1_Y365_YF] yielded a phosphorylation enrichment of 0.943.
For DLKFHYDNTAG [KDR_Y1214_P1210L], the phosphorylation enrichment was 1.
With AVVEPYNSILT [TUBA1A_Y185] the phosphorylation enrichment was 0.83.

The sequences below were run against Fyn (UniProt P06241) in the same assay as above.
Sequence of Fyn (P06241 whole entry, looked up): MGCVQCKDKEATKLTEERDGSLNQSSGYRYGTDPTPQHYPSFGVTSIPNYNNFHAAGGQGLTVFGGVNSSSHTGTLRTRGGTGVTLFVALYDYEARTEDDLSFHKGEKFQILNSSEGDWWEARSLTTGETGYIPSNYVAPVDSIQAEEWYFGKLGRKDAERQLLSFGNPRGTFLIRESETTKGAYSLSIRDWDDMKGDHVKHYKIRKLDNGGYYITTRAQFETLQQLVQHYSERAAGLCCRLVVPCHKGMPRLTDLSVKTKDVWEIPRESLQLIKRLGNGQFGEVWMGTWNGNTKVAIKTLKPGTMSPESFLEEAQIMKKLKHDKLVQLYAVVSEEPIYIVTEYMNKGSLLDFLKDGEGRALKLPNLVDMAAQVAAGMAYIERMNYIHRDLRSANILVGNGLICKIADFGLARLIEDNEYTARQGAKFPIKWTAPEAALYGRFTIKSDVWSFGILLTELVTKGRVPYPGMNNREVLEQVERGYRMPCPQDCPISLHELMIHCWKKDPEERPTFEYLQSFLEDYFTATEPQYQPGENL
In the case of HFVDEYDQTIE [KRAS_Y32_P34Q], the phosphorylation enrichment is reported as 0.897.
TGGLEYIVPLM [CLCN4_Y548] showed a phosphorylation enrichment of 0.436.
Sequence ECKLLYSRKEG [PTPN11_Y263] has a phosphorylation enrichment of 0.446.
Sequence GLQDEYDFKCK [STAT1_Y170_D165G] has a phosphorylation enrichment of 0.453.
EGDGVYTLNNE [HP_Y125] gave a phosphorylation enrichment of 6.33.
Work on RHPLEYLRQYP [NARS2_Y138] yielded a phosphorylation enrichment of 0.579.
INNKMYDPKMN [ENPP1_Y280_D276N] gave a phosphorylation enrichment of 0.397.
In the case of DGMADCSDPSF [CDC5L_Y459_Y459C_YF], the phosphorylation enrichment is reported as 0.524.
FTRNYYVRAVL [CYBA_Y88] was tested, and the phosphorylation enrichment was 0.511.
Sequence IHRWVYPLTPE [EIF2B5_Y319_R315H] has a phosphorylation enrichment of 0.511.
In the case of QLAPQYTYAQG [FLNA_Y1761], the phosphorylation enrichment is reported as 0.61.
NLAAQYTTVGR [SGSH_Y240_D235N] gave a phosphorylation enrichment of 0.401.
INMKKYCKKDY [NTN1_Y490] gave a phosphorylation enrichment of 0.391.
In the case of QLAPQYTFTQG [FLNA_Y1761_A1764T_YF], the phosphorylation enrichment is reported as 1.09.
FADIAYNFRHA [PAH_Y166_G171A_YF] showed a phosphorylation enrichment of 0.497.
Work on LTTEVYFPSIK [C5orf64_Y60_A57T] yielded a phosphorylation enrichment of 0.77.
LANNEYFFQVC was tested, and the phosphorylation enrichment was 1.4.
ADGLEYSRTGL [MMUT_Y287] was tested, and the phosphorylation enrichment was 0.544.
In the case of RHPREYQDLLN [DES_Y388_L385P], the phosphorylation enrichment is reported as 0.698.
For CVVVPYEPPEV [TP53_Y220_S215C], the phosphorylation enrichment was 0.568.
Work on NKFVAYIESQG [KDM4B_Y34_YF] yielded a phosphorylation enrichment of 0.49.
In the case of KRTFEYEAEKN [DENND2B_Y396_D399E], the phosphorylation enrichment is reported as 0.501.
Work on SELVRYDARVH [MET_Y971] yielded a phosphorylation enrichment of 0.456.
For FVPSFYHAFSG [ACTN4_Y265_S262P_YF], the phosphorylation enrichment was 1.48.
GKGGSYSQAAS [HLA-B_Y344_C349S] showed a phosphorylation enrichment of 0.362.
QKMADYSNKLH [PDPR_Y104_Y109H] showed a phosphorylation enrichment of 0.382.
Sequence KDHPDYKYQAR [SOX10_Y171_P175A] has a phosphorylation enrichment of 0.434.
Work on IQKWEYVPLGT [FAH_Y244_P249T] yielded a phosphorylation enrichment of 0.475.
Work on DPAFGYEDFTR [SESN2_Y323_T320A] yielded a phosphorylation enrichment of 0.533.
CCNHPYRINGA [CHD7_Y1256_L1257R] was tested, and the phosphorylation enrichment was 0.542.
Work on EILLSYLRTGF [TGM1_Y365_YF] yielded a phosphorylation enrichment of 0.401.
DLKFHYDNTAG [KDR_Y1214_P1210L] gave a phosphorylation enrichment of 0.484.
AVVEPYNSILT [TUBA1A_Y185] was tested, and the phosphorylation enrichment was 0.434.
